Publication doi:10.1101/2020.12.08.416958

Target: L-lactate oxidase (UniProt Q44467)
Assay: ITC

Sequence of UniProt Q44467 (Q44467 whole entry): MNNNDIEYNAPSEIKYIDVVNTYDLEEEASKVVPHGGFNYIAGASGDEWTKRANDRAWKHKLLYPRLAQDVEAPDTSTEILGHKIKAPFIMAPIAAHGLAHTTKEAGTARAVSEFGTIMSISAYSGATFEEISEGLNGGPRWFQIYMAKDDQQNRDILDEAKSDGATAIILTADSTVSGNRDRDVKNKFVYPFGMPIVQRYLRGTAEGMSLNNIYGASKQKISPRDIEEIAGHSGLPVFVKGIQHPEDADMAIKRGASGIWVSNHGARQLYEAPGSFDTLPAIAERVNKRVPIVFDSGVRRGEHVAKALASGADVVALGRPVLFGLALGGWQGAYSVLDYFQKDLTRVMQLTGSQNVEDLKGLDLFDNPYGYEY

maximum enthalpy: 0.7 kcal/mol
Substance: Poly-L-lysine hydrobromide (molecular weight 4,000-15,000 Da) (peptide)
